Target: E. coli F1Fo ATP synthase subunit b (cysteine-free enzyme) (E. coli) (UniProt P0ABA0)
Assay: cryo-EM structure; detergent-solubilised (digitonin) cysteine-free E. coli F1Fo ATP synthase (WT at 11 μM, εΔCTH2 mutant at 9 μM) with 10 mM MgATP, pH 8.0, 22 °C, 45 s in all until freezing

E. coli F1Fo ATP synthase subunit b (cysteine-free enzyme) (from UniProt P0ABA0 1-156) (natural protein)
stoichiometry N: 2

From article PMC9834311
